Source: article PMC6220978, “Induced conformational changes activate the peptidoglycan synthase PBP1B” (Molecular Microbiology, 2018)
Numbering of substitutions follows the chain as printed.

What was measured:
Experiment in all cases: SPR; PBP1B versions immobilised to the chip surface; CpoB versions injected from either 3.9 nM to 2 μM or from 78 nM to 40 μM; apparent KD by non-linear regression, at least three independent experiments
Settings in all cases: both partners purified
[1] = target: T1, PBP1B (wild type, PBP1B^46-844) (E. coli, UniProt P02919 46-844)
T1 construct: PBP1B, E. coli, residues 46-844, encoded on pDML924; Immobilised on the SPR chip as in Egan et al. 2014 / Gray et al. 2015; also called WT PBP1B; WT; source: E. coli BL21(DE3), purified (membrane extract, HisTrap, thrombin, HiTrap SP ion exchange)
T1 sequence (looked up): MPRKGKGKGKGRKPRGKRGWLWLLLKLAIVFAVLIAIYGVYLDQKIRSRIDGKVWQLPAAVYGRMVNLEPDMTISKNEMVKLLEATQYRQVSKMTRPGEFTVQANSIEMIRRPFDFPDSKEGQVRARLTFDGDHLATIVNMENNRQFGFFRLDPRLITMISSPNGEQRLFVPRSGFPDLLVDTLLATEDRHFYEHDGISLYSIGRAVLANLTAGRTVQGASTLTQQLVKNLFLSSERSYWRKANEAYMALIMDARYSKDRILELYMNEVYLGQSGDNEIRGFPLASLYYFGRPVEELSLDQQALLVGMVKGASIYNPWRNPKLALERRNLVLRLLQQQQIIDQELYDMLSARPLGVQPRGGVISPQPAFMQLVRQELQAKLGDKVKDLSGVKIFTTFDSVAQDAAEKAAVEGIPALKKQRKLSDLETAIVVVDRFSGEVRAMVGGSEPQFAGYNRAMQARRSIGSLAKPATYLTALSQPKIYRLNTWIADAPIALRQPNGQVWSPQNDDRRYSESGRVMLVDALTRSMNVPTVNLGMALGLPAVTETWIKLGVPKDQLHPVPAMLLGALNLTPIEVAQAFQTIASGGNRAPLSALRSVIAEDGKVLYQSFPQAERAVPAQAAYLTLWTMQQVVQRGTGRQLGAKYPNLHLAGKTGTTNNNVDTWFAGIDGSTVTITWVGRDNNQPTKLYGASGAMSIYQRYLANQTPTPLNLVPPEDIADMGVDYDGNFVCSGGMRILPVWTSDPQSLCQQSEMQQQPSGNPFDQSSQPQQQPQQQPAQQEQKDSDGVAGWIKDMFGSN

PBP1B E341A = target: T2, PBP1B E341A (E. coli, UniProt P02919 46-844, E341A)
T2 construct: PBP1B, E. coli, residues 46-844, made by mutagenesis of pDML924; source: E. coli BL21(DE3), purified (membrane extract, HisTrap, thrombin, HiTrap SP ion exchange)
T2 sequence (looked up): T1 sequence (looked up) with E296A

PBP1B R157A = target: T3, PBP1B R157A (E. coli, UniProt P02919 46-844, R157A)
T3 construct: PBP1B, E. coli, residues 46-844, made by mutagenesis of pDML924; source: E. coli BL21(DE3), purified (membrane extract, HisTrap, thrombin, HiTrap SP ion exchange)
T3 sequence (looked up): T1 sequence (looked up) with R112A

- Kd [1]: 94 nM
- Kd (PBP1B E341A): 77 nM
- Kd (PBP1B R157A): 147 nM
B1: CpoB (full length) (natural protein, E. coli, UniProt P45955 27-263, looked up)
chain: QAPISSVGSGSVEDRVTQLERISNAHSQLLTQLQQQLSDNQSDIDSLRGQIQENQYQLNQVVERQKQILLQIDSLSSGGAAAQSTSGDQSGAAASTTPTADAGTANAGAPVKSGNANTDYNAAIALVQDKSRQDDAMVAFQNFIKNYPDSTYLPNANYWLGQLNYNKGKKDDAAYYFASVVKNYPKSPKAADAMFKVGVIMQDKGDTAKAKAVYQQVISKYPGTDGAKQAQKRLNAM
notes: CpoB, E. coli; The coiled-coil construct begins at residue 27, so the purified 'full length' protein may lack the signal peptide (surmise); source: E. coli BL21(DE3), purified (HisTrap, Superdex 200), as in Gray et al. 2015
